Here are results for 55 molecules from patent US20200199241A1 (Chugai, published 2020).

Residue numbers refer to the chain shown, from its start.

B1: IgG1-F1232 (antibody)
heavy: QVQLQESGPGLVKPSETLSLTCAVSGHSISHDHAWSWVRQPPGEGLEWIGFISYSGITNYNPSLQGRVTISRDNSKNTLYLQMNSLRAEDTAVYYCARSLARTTAMDYWGEGTLVTVSSASTKGPSVFPLAPSSKSTSGGTAALGCLVKDYFPEPVTVSWNSGALTSGVHTFPAVLQSSGLYSLSSVVTVPSSSLGTQTYICNVNHKPSNTKVDKKVEPKSCDKTHTCPPCPAPELLGGPSVFLFPPKPKDTLYISRTPEVTCVVVDVSHEDPEVKFNWYVDGVEVHNAKTKPREEQYNSTYRVVSVLTVLHQDWLNGKEYKCKVSNKALPAPIEKTISKAKGQPREPQVYTLPPSRDELTKNQVSLTCLVKGFYPSDIAVEWESNGQPENNYKTTPPVLDSDGSFFLYSKLTVDKSRWQQGNVFSCSVMHEALHYHVTKKDLSLSP
light: not shown
notes: EU numbering; copies: 2 + 2
B2: IgG1-F1245 (antibody)
heavy: B1 heavy with L237R, S241K, S256T, T258E, K440R, D442E
light: not shown
notes: EU numbering; copies: 2 + 2
B3: IgG1-F1292 (antibody)
heavy: B1 heavy with L237R, S241K, Y254M, H435D, Y436W, K440R, D442E
light: not shown
notes: EU numbering; copies: 2 + 2
B4: IgG1-F1244 (antibody)
heavy: B1 heavy with L237R, S241K, T258E, K440R, D442E
light: not shown
notes: EU numbering; copies: 2 + 2
B5: IgG1-F1293 (antibody)
heavy: B1 heavy with L237R, S241K, T258E, V438Y, K440R, D442E
light: not shown
notes: EU numbering; copies: 2 + 2
B6: IgG1-F1247 (antibody)
heavy: B1 heavy with L237R, S241K, T252V, T258E, K440R, D442E
light: not shown
notes: EU numbering; copies: 2 + 2
B7: IgG1-F1282 (antibody)
heavy: B1 heavy with L237R, S241K, T258N
light: not shown
notes: EU numbering; copies: 2 + 2
B8: IgG1-F1260 (antibody)
heavy: B1 heavy with L237R, S241K, T309Q, Q313H, K440R, D442E
light: not shown
notes: EU numbering; copies: 2 + 2
B9: IgG1-F1280 (antibody)
heavy: B1 heavy with L237R, S241K, T258G, H435D, K440R, D442E
light: not shown
notes: EU numbering; copies: 2 + 2
B10: IgG1-F1252 (antibody)
heavy: B1 heavy with L237R, S241K, T252V, S256T, T258Q, K440R, D442E
light: not shown
notes: EU numbering; copies: 2 + 2
B11: IgG1-F1298 (antibody)
heavy: B1 heavy with L237R, S241K, T258E, H435D, V438F, K440R, D442E
light: not shown
notes: EU numbering; copies: 2 + 2
B12: IgG1-F1255 (antibody)
heavy: B1 heavy with L237R, S241K, Q313A, K440R, D442E
light: not shown
notes: EU numbering; copies: 2 + 2
B13: IgG1-F1289 (antibody)
heavy: B1 heavy with L237R, S241K, T258E, H435D, K440R, D442E
light: not shown
notes: EU numbering; copies: 2 + 2
B14: IgG1-F1300 (antibody)
heavy: B1 heavy with L237R, S241K, T258E, V438T
light: not shown
notes: EU numbering; copies: 2 + 2
B15: IgG1-F1248 (antibody)
heavy: B1 heavy with L237R, S241K, T252V, S256T, T258E, K440R, D442E
light: not shown
notes: EU numbering; copies: 2 + 2
B16: IgG1-F1290 (antibody)
heavy: B1 heavy with L237R, S241K, T258E, H435D
light: not shown
notes: EU numbering; copies: 2 + 2
B17: IgG1-F1262 (antibody)
heavy: B1 heavy with L237R, S241K, D442E
light: not shown
notes: EU numbering; copies: 2 + 2
B18: IgG1-F1265 (antibody)
heavy: B1 heavy with L237R, S241K, T258G, K440R, D442E
light: not shown
notes: EU numbering; copies: 2 + 2
B19: IgG1-F1243 (antibody)
heavy: B1 heavy with L237R, S241K, S256T, K440R, D442E
light: not shown
notes: EU numbering; copies: 2 + 2
B20: IgG1-F1296 (antibody)
heavy: B1 heavy with L237R, S241K, T258E, H435D, V438Y, K440R, D442E
light: not shown
notes: EU numbering; copies: 2 + 2
B21: IgG1-F1277 (antibody)
heavy: B1 heavy with L237R, S241K, T258A, H435D, K440R, D442E
light: not shown
notes: EU numbering; copies: 2 + 2
B22: IgG1-F1291 (antibody)
heavy: B1 heavy with L237R, S241K, H435D, K440Q, D442S
light: not shown
notes: EU numbering; copies: 2 + 2
B23: IgG1-F1263 (antibody)
heavy: B1 heavy with L237R, S241K
light: not shown
notes: EU numbering; copies: 2 + 2
B24: IgG1-F1276 (antibody)
heavy: B1 heavy with L237R, S241K, T258A
light: not shown
notes: EU numbering; copies: 2 + 2
B25: IgG1-F1266 (antibody)
heavy: B1 heavy with L237R, S241K, T258N, K440R, D442E
light: not shown
notes: EU numbering; copies: 2 + 2
B26: IgG1-F1283 (antibody)
heavy: B1 heavy with L237R, S241K, T258N, H435D, K440R, D442E
light: not shown
notes: EU numbering; copies: 2 + 2
B27: IgG1-F1297 (antibody)
heavy: B1 heavy with L237R, S241K, T258E, H435D, V438T, K440R, D442E
light: not shown
notes: EU numbering; copies: 2 + 2
B28: IgG1-F1273 (antibody)
heavy: B1 heavy with L237R, S241K, T258Q
light: not shown
notes: EU numbering; copies: 2 + 2
B29: IgG1-F1279 (antibody)
heavy: B1 heavy with L237R, S241K, T258G
light: not shown
notes: EU numbering; copies: 2 + 2
B30: IgG1-F1284 (antibody)
heavy: B1 heavy with L237R, S241K, T258N, H435D
light: not shown
notes: EU numbering; copies: 2 + 2
B31: IgG1-F1294 (antibody)
heavy: B1 heavy with L237R, S241K, T258E, V438T, K440R, D442E
light: not shown
notes: EU numbering; copies: 2 + 2
B32: IgG1-F1287 (antibody)
heavy: B1 heavy with L237R, S241K, S256T, H435D
light: not shown
notes: EU numbering; copies: 2 + 2
B33: IgG1-F1274 (antibody)
heavy: B1 heavy with L237R, S241K, T258Q, H435D, K440R, D442E
light: not shown
notes: EU numbering; copies: 2 + 2
B34: IgG1-F1259 (antibody)
heavy: B1 heavy with L237R, S241K, T309Q, Q313A, K440R, D442E
light: not shown
notes: EU numbering; copies: 2 + 2
B35: IgG1-F1285 (antibody)
heavy: B1 heavy with L237R, S241K, S256T
light: not shown
notes: EU numbering; copies: 2 + 2
B36: IgG1-F1246 (antibody)
heavy: B1 heavy with L237R, S241K, T252V, S256T, K440R, D442E
light: not shown
notes: EU numbering; copies: 2 + 2
B37: IgG1-F1251 (antibody)
heavy: B1 heavy with L237R, S241K, T252V, T258Q, K440R, D442E
light: not shown
notes: EU numbering; copies: 2 + 2
B38: IgG1-F1257 (antibody)
heavy: B1 heavy with L237R, S241K, T309A, Q313A, K440R, D442E
light: not shown
notes: EU numbering; copies: 2 + 2
B39: IgG1-F1258 (antibody)
heavy: B1 heavy with L237R, S241K, T309A, Q313H, K440R, D442E
light: not shown
notes: EU numbering; copies: 2 + 2
B40: IgG1-F1267 (antibody)
heavy: B1 heavy with L237R, S241K, S256A, K440R, D442E
light: not shown
notes: EU numbering; copies: 2 + 2
B41: IgG1-F1268 (antibody)
heavy: B1 heavy with L237R, S241K, H435D, K440R, D442E
light: not shown
notes: EU numbering; copies: 2 + 2
B42: IgG1-F1249 (antibody)
heavy: B1 heavy with L237R, S241K, T258Q, K440R, D442E
light: not shown
notes: EU numbering; copies: 2 + 2
B43: IgG1-F1286 (antibody)
heavy: B1 heavy with L237R, S241K, S256T, H435D, K440R, D442E
light: not shown
notes: EU numbering; copies: 2 + 2
B44: IgG1-F1281 (antibody)
heavy: B1 heavy with L237R, S241K, T258G, H435D
light: not shown
notes: EU numbering; copies: 2 + 2
B45: IgG1-F1256 (antibody)
heavy: B1 heavy with L237R, S241K, Q313H, K440R, D442E
light: not shown
notes: EU numbering; copies: 2 + 2
B46: IgG1-F1301 (antibody)
heavy: B1 heavy with L237R, S241K, T258E, V438F
light: not shown
notes: EU numbering; copies: 2 + 2
B47: IgG1-F1261 (antibody)
heavy: B1 heavy with L237R, S241K, K440R
light: not shown
notes: EU numbering; copies: 2 + 2
B48: IgG1-F1278 (antibody)
heavy: B1 heavy with L237R, S241K, T258A, H435D
light: not shown
notes: EU numbering; copies: 2 + 2
B49: IgG1-F1264 (antibody)
heavy: B1 heavy with L237R, S241K, T258A, K440R, D442E
light: not shown
notes: EU numbering; copies: 2 + 2
B50: IgG1-F1275 (antibody)
heavy: B1 heavy with L237R, S241K, T258Q, H435D
light: not shown
notes: EU numbering; copies: 2 + 2
B51: IgG1-F1299 (antibody)
heavy: B1 heavy with L237R, S241K, T258E, V438Y
light: not shown
notes: EU numbering; copies: 2 + 2
B52: IgG1-F1250 (antibody)
heavy: B1 heavy with L237R, S241K, S256T, T258Q, K440R, D442E
light: not shown
notes: EU numbering; copies: 2 + 2
B53: IgG1-F1271 (antibody)
heavy: B1 heavy with L237R, S241K, S256A, H435D, K440R, D442E
light: not shown
notes: EU numbering; copies: 2 + 2
B54: IgG1-F1253 (antibody)
heavy: B1 heavy with L237R, S241K, T309A, K440R, D442E
light: not shown
notes: EU numbering; copies: 2 + 2
B55: IgG1-F1295 (antibody)
heavy: B1 heavy with L237R, S241K, T258E, V438F, K440R, D442E
light: not shown
notes: EU numbering; copies: 2 + 2

T1 sequence (chain, as listed by the source limits assumed, chain 1 of 2): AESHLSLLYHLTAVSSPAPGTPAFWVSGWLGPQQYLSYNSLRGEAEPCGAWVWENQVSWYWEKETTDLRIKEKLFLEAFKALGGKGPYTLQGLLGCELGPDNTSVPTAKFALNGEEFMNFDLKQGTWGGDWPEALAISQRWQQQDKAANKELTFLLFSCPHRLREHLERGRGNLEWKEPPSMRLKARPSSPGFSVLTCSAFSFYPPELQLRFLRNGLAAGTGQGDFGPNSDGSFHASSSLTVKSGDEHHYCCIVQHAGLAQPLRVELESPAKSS
T1 sequence (P61769 21-119 limits assumed, chain 2 of 2): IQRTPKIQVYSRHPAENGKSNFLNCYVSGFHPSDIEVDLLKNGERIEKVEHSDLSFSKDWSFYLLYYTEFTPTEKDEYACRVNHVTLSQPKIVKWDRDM

The experiment has as its target T1, soluble human FcRn complexed with β2-microglobulin (human, UniProt P61769 21-119, limits assumed).
T1 construct: also called hFcRn
Kind of experiment: Biacore SPR, pH 7.0.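 Further: test antibodies captured on a Protein L chip with human FcRn flowed over as analyte, KD obtained as the ratio of dissociation to association rate constants.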
Molecule B1 yielded a dissociation constant Kd of 0.0979 µM.

B2 registered a Kd of 0.082 µM. B3 gave a Kd of 0.424 µM. Next, B4: 0.102 µM.

As to B5, the affinity, expressed as Kd, was 0.161 µM. Against the preceding molecule, the Kd is about 1.6-fold higher. In the case of B6 it was 0.145 µM; in that of B7, 0.0769 µM; in that of B8, 0.0653 µM. Next, B9: 0.209 µM.

B10 registered a Kd of 0.233 µM.

B11 showed a dissociation constant Kd of 0.147 µM. Consider B12, for which the Kd amounted to 0.111 µM. Next, B13: 0.333 µM; B14: 0.163 µM; B15: 0.12 µM.

In turn, B16 showed a dissociation constant (Kd) of 0.111 µM.

In the case of B17, the dissociation constant (Kd) is 0.126 µM. Molecule B18 displayed a dissociation constant (Kd) of 0.157 µM. B19 had a Kd of 0.125 µM.

For the molecule B20, binding was characterised by a dissociation constant (Kd) of 0.227 µM. B21: the Kd is 0.169 µM. In the case of B22 it was 0.151 µM; in that of B23, 0.124 µM. Next, B24: 0.102 µM; B25: 0.0999 µM; B26: 0.134 µM.

Molecule B27 registered a Kd of 0.25 µM. Next, B28: 0.153 µM; B29: 0.123 µM. Next, B30: 0.112 µM; B31: 0.2 µM. B32 returned a Kd of 0.15 µM. In the case of B33 it was 0.248 µM; in that of B34, 0.0446 µM. Next, B35: 0.0936 µM; B36: 0.173 µM. In the case of B37 it was 0.277 µM.

Consider B38, for which the equilibrium dissociation constant (Kd) stood at 0.0781 µM. The molecule B39 showed a dissociation constant Kd of 0.105 µM. This Kd and that of the molecule before are within 1.5-fold of each other. In the case of B40 it was 0.15 µM; in that of B41, 0.2 µM. In the case of B42 it was 0.206 µM; in that of B43, 0.157 µM; in that of B44, 0.174 µM. Next, B45: 0.156 µM. B46 returned a dissociation constant Kd of 0.083 µM.

Regarding B47, the Kd is 0.135 µM.

In turn, B48 displayed a dissociation constant (Kd) of 0.14 µM. Next, B49: 0.127 µM; B50: 0.209 µM. For B51, the affinity, expressed as Kd, was 0.15 µM. Next, B52: 0.166 µM; B53: 0.205 µM. In the case of B54 it was 0.112 µM; in that of B55, 0.0984 µM.
